Results published in paper PMC5784833 (Journal of the American Chemical Society, 2017).

Test system: CC(=O)Oc1ccc([N+](=O)[O-])cc1
Test: purified protein

Substance: carbonic anhydrase II (CA-II) (Homo sapiens)
- Km: 2520 ± 260 µM
